Experiment: yeast display, Sf9 membrane polyspecificity reagent, FACS + sequencing; frameworks hold sequencing errors
Summary of the method: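 A synthetic nanobody library was expressed on Saccharomyces cerevisiae BJ5465 by galactose induction for 36–48 hours. The library was stained for 1 hour at 4 °C with 10% biotinylated, detergent-solubilized Sf9 membrane reagent and enriched with streptavidin microbeads before FACS. Low and high (top ~1%) gates were set on anti-HA fluorescence for expression and streptavidin fluorescence for reagent binding, and each polyreactivity label reflects the gate of origin.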

| Sequence | polyreactivity (PSR sort gate) |
| --- | --- |
| QVQLVESGGGLVQAGGSLRLSCAASGRTFTSYAMGWYRQAPGKERELVAAISSSGSSTYYADSVKGRFTISRDNAKNTVYLQMNSLKPEDTAVYYCAVGGSFRYRVQYDYWGQGTQVTVSS | high polyreactivity |
| QVQLVESGGGLVQAGGSLRLSCAASGSIFRWYTMGWYRQAPGKERELVAAISRSGGSTYYADSVKGRFTISRDNAKNTVYLQMNRLKPEDTAVYYCAADKFRHPYWDRYIYFHYDYWGQGTQVTVSS | low polyreactivity |
| QVQLVESGGGLVQAGGSLRLSCAASGSTFLSYAMGWYRQAPGKERELVAAISWSGGRTYYADSVKGRFTISRDNAKNTVYLQMNSLKPEDTAVYYCAARHVPFTKHEYEYWGQGTQVTVSS | low polyreactivity |
| QVQLVESGGGLVQAGGSLRLSCAASGSTSGKYGMGWYRQAPGKVRELVAGITKGGGGTYYADSVKGRFTISRDNAKNTVYLQMHSLKPEDTAVYYCAKYYGSGYYIYDYWGQGTQVTVSS | low polyreactivity |
| QVQLVESGGGLVQAGGSLRLSCAASGSITVPYGMGWYRQAPGKERELVAAITGGSTNYADSVKGRFTISRDNAKNTVYLQMNSLKPEDTAVYYCAADWWALYTRYDYWGQGSQVTVSS | low polyreactivity |
| QVQLVESGGGLVQAGGSLRLSCAASGRPFRGNAMGWYRQAPGKERQLVAAITGTGGSTYYADSVKGRFTISRDNAKNTVYLQMNSVKPEDTAVYYCAAVLRGHNGLNFEYWGQGTQVTVSS | high polyreactivity |
| QVQLVESGGGLVQAGGSLRLSCAASGSIFLVYAMGWYRQAPGKERELVAAISRSGRTYADSVKGRFTISRDNAKNTVYLQMNSLKPEDTAVYYCNKLAVRPGYGSTYDYWGQGTQVTVSS | high polyreactivity |
| QVQLVESGGGLVQAGGSLRLSCAASGYTFSRYAMGWYRQAPGKERELVAAISHSAGRTYYADSVKGRFTISRDNAKNTVYLQMNSLKPEDTAVYYCATAYKPDTRDDYWGQGTQVTVSS | high polyreactivity |
| QVQLVESGGGLVQAGGSLRLSCAASGNIYRYYVMGWYRQAPGKEREFVAAITSSGGSTYYADSVKGRFTISRDNAKNTVYLQMNSLKPEDTAVFYCAKDYGDPGWAEYDYWGQGTQVTVSS | low polyreactivity |
| QVQLVESGGGLVHAGGSLRLSCAASGSIFVPYALGWYRQAPGKDRELVAAMTSSGSSTYYADSVKGRFTISRDNAKNTVYLQMNSLKPDDTAGYYCAADYFDWEGNGYYYWGQGNQVTVSS | high polyreactivity |
| QVQLVESGGGLVQAGGSLRLSCAASGFISRYYGMGWYRQAPGKERELVAAISWSGGRTHYADSVKGRFTISRDNAKNTVYLQMNSLKPEDTAVYYCATDRYYRPGGEYDYWGQGTQVTVSS | high polyreactivity |
| QVQLVESGGGLVQAGGILLLSCAASGFIFWYYTMGWYKQAPGKERELVAAINSGGSTNYPDSVKGRFTSSRDNAKNTVYLQMNSLKPEDTAVYYCAALVWYSGELFYYWGQGTQVTVSS | low polyreactivity |
| QVQLVESRGCLVQAGVSLRLSCAASGSTFQSYAMGCYRQAPGKERELVAAISTSETDRTYYADSVKGRFTISRDNAKNTVYLQMISLKPEDTAVYYCNADGYSHGDWYGYWGQGTQVTVSS | low polyreactivity |
| QVQLVESGGGLVQARRSLRLSCAASGSTFVQYAMGWDRQAPGNERELVASISYSTGSSTYYADSVKGRFTISRDNAKTTVYLQMNSLKPEDTAFYECAAGIPKGGWSRPRYYYWGQGTQVTVSS | high polyreactivity |
| QVQLEESGGGLVQAGGSLRLSCAASGLTFPSNDMGCYRQAPGKERELVAASSKRGGRTYYADYVKGRFTISRDNAKNTVYLQMNSLKPEDTAVYYCATPYAFPGTVQYAGYNYWGQGTQVTVSS | high polyreactivity |
| QVQLVESGGGLVQAGGSLRLSCAASGRTFYTVYAMGWYRQAPGKERELVAAITKDGTTTYYADSVKGRFTISRDNAKNTVYLQMNSLKPEDTAVYYCNADVCQPWGGGEYNYWGQGTQVTVSS | high polyreactivity |
| QVQLVESGGGLVQAGGSLRLSCAASRFIFQPYAMGWYRQAPGKERELVAAITSRGGRTYYADSVKGRFTISRDNAKNTVYLKMNSLKPEDSAVYYCNADIYASEYYYWGQGTQVTVSS | low polyreactivity |
| QVQLQECGGGLVQAGGSLRLSCAASGNIFDAYIMGWYRQAPGKERELVASVTDGGSTNYADSVKGRFTISRDNAKNTVYLQMNSLKPEDTAVYYCAAIVYPDILTYFDYDYDYFYWGQGTQVTVGS | low polyreactivity |
| QVQLLESGGGIVQAGGSLRLSCVASGFTISVYAMVWYRHAPGKERELVAAISRVGSSNYADSVKGRFTISRDNAKNTVYLHMISLKTEDTSVYYCNAVLRHTWVSRGYGSWGQGTQVSVSS | high polyreactivity |
| QVQLVESGGGLVQAGGSLRLSCAASGFTFGRYALGWYRQPPGKERELVAVISWSGVSTYYADSVKGRFTISRDNAKNTVYLQMNSLKPEDTAVYYCNKRSYHYPYGYDYWGQGTQVTVSS | high polyreactivity |
| QVQLVESGGGLVQAGGSHRLSCAASGNTFYDYAMGWYRQAPGKERELVAAISSDGNTYYADSVKGRFTFSRDNAKKTVYLQMNSLKPVDTAVYYCAADAWRYYYLSWFGSIGFDYWGQGTQVTVSS | high polyreactivity |
| QVQLQESGGGLVQAGGSLCLSCAASGTIFFDGDMGWNRQAPGKEREFVAAINPGGSAYYADSVKGRLPLAAITHTVYMQMYSLKPEDTAVYYCEAILFDVYGYYYWGQGTNVTVSS | low polyreactivity |

| Sequence | polyreactivity (PSR sort gate) |
| --- | --- |
| QVQLVESGGGLVQAGGSLRLSCAASGFIFQYNAMGWYRQAPGKERELVAAISKSGGRTYYADSVKGRFTISRDNPKNTVDLQMNSLKPEDTAVYYCAALYVWLWGYRFDYWGQGTQVTVSS | high polyreactivity |
| QVQLVESGGGLVQAGGSLRLSCAASGRIFQRNAMGWYRQAPGKVWELVAAITSTGVRTYYADSVKGRFTISRDNAKNTVYLQMNSLKPEDSAVYYCNAVGRRVRTWHDYDYWGQGTQVTVSS | high polyreactivity |
| QVQLVESGGGLVQAGGSLRLSCAASGSTFADYVMGWYRQAPGKERELVAAISRSGGSTYYADSVKGRFTISRDNAKNTVYLQMNSLKPEDTAVYYCATDITPAISVEYDYWGQGTQVTVSS | high polyreactivity |
| QVQHVESGGGLVQAGRSLRLICAASGSTFLEYAMGWYRQAPGKERELVASISWSGGSTNYADSVKGRFTFSRDNAKNTVYLQMNSLKPEDTAVFYCNARGWSVVSSRYGYWGQGTQVTVSS | low polyreactivity |
| QVQLEESGGGLVQAGGSLRLSCAASGRTITNYAMGWYRQAPGKERELVASINSGGSTSYADSVKGRFTISRDNAKNTVYLQMNSLKPEDTAVYYCNKRYLKFWGHQYGYWGQGTQVTVSS | high polyreactivity |
| QVQLVESGGGLVQAGGSLRLICAASGRIFSKNAMGWYRQAPGKEREFVAAISRIGGRTYYADSVKGRFTISRDNAKNTVYFQMNSLKPEDTAVYYCATVHYGYTTSYDYWGQGTQVTVSS | high polyreactivity |
| QVQLVESGGGLVQAGGSLRLSCAASGLISYHYAMGWYRQAPGKERELVASISYTGGSTFYADSVKGRFTISRDNAKNTVYFQMNSLKPEDTAVYYCAAYRIWRPSYYYWGQGTQVTVSS | high polyreactivity |
| QVQLVESGGGLVQAGGSLRLRCAASGLIFITYAMGRYRQAPGKERELVATITLRGGSTYYADSVKGRFTISRDNAKNTVYLQMNSLKPEDTAVYYCNADSIYYGYDYWGQGTQVTVSS | low polyreactivity |
| QVQLVESGGGLVQAGRSLRLSCAASGSIFEYYAMGWSRQAPGKEWELVAAITESGGSTYYADSVKGRFHNFTRQCEEYRLFTDEQPETGRYRGLLLAADAESYQNDYALDYWGQGTQETVSS | low polyreactivity |
| QVQLVESGGGLVQAGGSLRLSCAASGFTFDSNVMGWYRQAPGKEREVVAAITGDDTTYYADSVKGRFTISRDNAKNTVYLQMNSLKPEDTAVYYCAADETESLEYTAYDMYYWGQGTQVTVSS | low polyreactivity |
| QVQLVESGGGLVQSGGSLRLICAASGRTSLNYAMGWYRQAPGKEMELVAAITRGGGGTYYADSVKGRFTISRDNAKNTVYFQMNSLKPEDTAVYYCAREHKRGGYGYWGQGTQVTVSS | high polyreactivity |
| QVQLVESGGGLVQAGGSLRLSCAPSGSTFYPNAKGWYRQAPRKERELVAAISRSGGSTYYADSVKGRFTISRDNAKNTVYLQMNSLKPEDTAVYYCAADGRSPARYDYWGQGTQVTVSS | low polyreactivity |
| QVQLVESGGRLVQAGGSLRLSCAASGSIFIPNAMGWYRQAPGKERELVAAITVSGGITYYADSVKGRFTISRDNAKNSVYLQMNSLKPEDTAVYYCAADFTIYYILEYDYWGQGTQVTVSS | low polyreactivity |
| QVQLVESGGGLVQAGGSLRLSCAASGRIFVINAMGWYRQAPGKERELVADITWSGGSTYADSVKGRFTISRDNAKNTVYLLMNSLNPADTAVSYCAAVYLRVDRYLQVYRYDYWGQGTQVTVSS | high polyreactivity |
| QVQLVESGGGLVPAGGSLRLSCAASGRTFYSYGMGWYRQAPGKERELVASISSSTGSTYYADSVKGRFTISRDNAKNTVYLQMNSLKPEDTAVYYCAKRYSWTRRYDYWGQGTQVTVSS | high polyreactivity |
| QVQLVESGGGLVQAGGSLRLSCDASGSTSYLYAMGCYRQAPGKARELVAAIPWRSVRTSYADSVKGRFTFSRDNAKNTVYLQMNSLKPEDTAVYYCNAVGYTRGRSTYDYWGQGTQVTVSS | high polyreactivity |
| QVQLVESGGGLVQAGGSLRLSCAASGLTFYDYAMGWYRQAPGKERELVADIDFNGGSTSYADSVKGRFTISRDNAKNTVYLQMNSLKPEDSAVYYCNSRDRGDVVTGLDYWGQGTQVTVSS | low polyreactivity |
| QVQLVESGGGLVQAGGSLRLSCAASGRIFYYYAMGWYRQAPGKERELVAAISWSGGSTYYADSVKGRFTISRDNAKNTVYLQMNSLKPEDTAVYYCAAESRKYREYYYWGQGTQVTVSS | high polyreactivity |
| QVQLVESGGGLVQAGGSLRLSCAASGSIFYVNTMGWYRQAPGKERELVAAISDSSGGTYYADSVKGRFTISRDNAKNTVYLQMNSLKPEDPAVYYCARDSTSHYDSGPYSSPFDYWGQGTQVTVSS | low polyreactivity |
| QVQLVESGGCLVQAGGSLRLSCAASGRTFSIYAMGWYRQAPGKEWELVASINGSGGSTYYADSVKGRFTISRDIAMNTVYLQMNSLKPEDTAVYYCAARASPRFNYWGQGSQVTVSS | high polyreactivity |
| QVQLVESGGGLVQAGGSLRLSCAASGGTFAVNAMGWYRQAPGKEREFVAAISSRGSTSYADSVKGRFTISRDNAKNTVYLQMNSLKPEDTAVYYCAKRQGYWFDYWGQGTQVTVSS | high polyreactivity |

From the nanobody polyreactivity screen of Harvey et al. (2022)
